From patent publication US20260242735A1 (UNIVERSIT T BASEL, published 2026)
Values belong to the binder of their own block, whether it stands above or below them.

How the values were obtained:
Assay in all cases: flow cytometry, IgG on cells expressing the mutant
[1] = target: human CD33 variant I47Q (human, UniProt P20138 18-364)
Protocol: (§1) An alanine scan on human CD33 was performed to the determine the residues on CD33 that are involved in binding to the antibodies investigated. […] Briefly, a mutation library of CD33 was created by high-throughput, site-directed mutagenesis. Each residue was individually mutated to alanine, with alanine codons mutated to serine. The mutant library was arrayed in 384-well microplates and transiently transfected into HEK293-T. Following transfection, cells were incubated with the indicated antibodies (IgG or Fab) at concentrations pre-determined using an independent immunofluorescence titration curve on wild type CD33. […] Binding of each antibody to each mutant clone was determined in duplicates. For each point, background fluorescence was subtracted from the raw data, which were then normalized to antibody reactivity with wild type CD33.
(§2) Antibodies were screened for binding to the human CD33 variants in IgG format. […] For each mutation, background fluorescence was subtracted from the raw data, which were then normalized to antibody reactivity with wild-type CD33.

[2] = target: human CD33 variant P48F (human, UniProt P20138 18-364)
Protocol: as §1, §2

[3] = target: human CD33 variant P48Y (human, UniProt P20138 18-364)
Protocol: as §1, §2

[4] = target: human CD33 variant P48Q (human, UniProt P20138 18-364)
Sequence of human CD33 variant P48Q (P20138 18-364 P48Q limits assumed): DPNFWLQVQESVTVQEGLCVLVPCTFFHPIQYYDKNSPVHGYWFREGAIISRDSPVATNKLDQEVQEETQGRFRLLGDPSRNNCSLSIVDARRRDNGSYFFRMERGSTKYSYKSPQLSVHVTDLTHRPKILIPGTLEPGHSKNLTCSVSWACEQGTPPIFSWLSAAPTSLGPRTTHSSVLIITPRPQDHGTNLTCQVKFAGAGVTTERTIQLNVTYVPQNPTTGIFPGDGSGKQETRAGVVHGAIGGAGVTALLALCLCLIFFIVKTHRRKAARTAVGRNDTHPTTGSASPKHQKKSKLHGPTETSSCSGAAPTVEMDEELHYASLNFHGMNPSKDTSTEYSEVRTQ
Protocol: as §1, §2

[5] = target: human CD33 variant Y49R (human, UniProt P20138 18-364)
Sequence of human CD33 variant Y49R (P20138 18-364 Y49R limits assumed): as the sequence (P20138 18-364 P48Q limits assumed) above, with Q31P, Y32R counted along it
Protocol: as §1, §2

[6] = target: human CD33 variant Y50N (human, UniProt P20138 18-364)
Sequence of human CD33 variant Y50N (P20138 18-364 Y50N limits assumed): as the sequence (P20138 18-364 P48Q limits assumed) above, with Q31P, Y33N counted along it
Protocol: as §1, §2

[7] = target: human CD33 variant Y50H (human, UniProt P20138 18-364)
Sequence of human CD33 variant Y50H (P20138 18-364 Y50H limits assumed): as the sequence (P20138 18-364 P48Q limits assumed) above, with Q31P, Y33H counted along it
Protocol: as §1, §2

[8] = target: human CD33 variant Y50L (human, UniProt P20138 18-364)
Sequence of human CD33 variant Y50L (P20138 18-364 Y50L limits assumed): as the sequence (P20138 18-364 P48Q limits assumed) above, with Q31P, Y33L counted along it
Protocol: as §1, §2

[9] = target: human CD33 variant D51Y (human, UniProt P20138 18-364)
Sequence of human CD33 variant D51Y (P20138 18-364 D51Y limits assumed): as the sequence (P20138 18-364 P48Q limits assumed) above, with Q31P, D34Y counted along it
Protocol: as §1, §2

[10] = target: human CD33 variant V56R (human, UniProt P20138 18-364)
Sequence of human CD33 variant V56R (P20138 18-364 V56R limits assumed): as the sequence (P20138 18-364 P48Q limits assumed) above, with Q31P, V39R counted along it
Protocol: as §1, §2

[11] = target: human CD33 variant M120I (human, UniProt P20138 18-364)
Sequence of human CD33 variant M120I (P20138 18-364 M120I limits assumed): as the sequence (P20138 18-364 P48Q limits assumed) above, with Q31P, M103I counted along it
Protocol: as §1, §2

[12] = target: human CD33 variant Y127H (human, UniProt P20138 18-364)
Sequence of human CD33 variant Y127H (P20138 18-364 Y127H limits assumed): as the sequence (P20138 18-364 P48Q limits assumed) above, with Q31P, Y110H counted along it
Protocol: as §1, §2

[13] = target: human CD33 variant Y127E (human, UniProt P20138 18-364)
Sequence of human CD33 variant Y127E (P20138 18-364 Y127E limits assumed): as the sequence (P20138 18-364 P48Q limits assumed) above, with Q31P, Y110E counted along it
Protocol: as §1, §2

Sequence of human CD33 variant P48F (P20138 18-364 P48F limits assumed): as the sequence (P20138 18-364 P48Q limits assumed) above, with Q31F counted along it
Sequence of human CD33 variant I47Q (P20138 18-364 I47Q limits assumed): as the sequence (P20138 18-364 P48Q limits assumed) above, with I30Q, Q31P counted along it
Sequence of human CD33 variant P48Y (P20138 18-364 P48Y limits assumed): as the sequence (P20138 18-364 P48Q limits assumed) above, with Q31Y counted along it

B3: Refmab #1 (antibody, human IgG1, V domains shown)
VH: EVQLVQSGAEVKKPGSSVKVSCKASGYTITDSNIHWVRQAPGQSLEWIGYIYPYNGGTDYNQKFKNRATLTVDNPTNTAYMELSSLRSEDTAFYYCVNGNPWLAYWGQGTLVTVSS
VL: DIQLTQSPSTLSASVGDRVTITCRASESLDNYGIRFLTWFQQKPGKAPKLLMYAASNQGSGVPSRFSGSGSGTEFTLTISSLQPDDFATYYCQQTKEVPWSFGQGTKVEVK
notes: Tested in IgG format; human IgG1 (Absolute Antibody hP67.6, Cat. No. Ab00283-10.0); also called hP67.6
Mean % WT Binding [1]: 104 % of WT
Mean % WT Binding [2]: 94.6 % of WT
Mean % WT Binding [3]: 99.5 % of WT
Mean % WT Binding [4]: 120 % of WT
Mean % WT Binding [5]: 87.1 % of WT
Mean % WT Binding [6]: 96.3 % of WT
Mean % WT Binding [7]: 103 % of WT
Mean % WT Binding [8]: 109 % of WT
Mean % WT Binding [9]: 94.4 % of WT
Mean % WT Binding [10]: 98.5 % of WT
Mean % WT Binding [11]: 96.6 % of WT
Mean % WT Binding [12]: 97.1 % of WT
Mean % WT Binding [13]: 79.2 % of WT

B4: Refmab #2 (antibody, human IgG1, V domains shown)
VH: QVQLVQSGAEVKKPGSSVKVSCKASGGTFSDYAISWVRQAPGQGLEWMGRIIPILGVADYAQKFQGRVTITADKSTRTAYMELSSLRSEDTAVYYCARNWADAFDIWGQGTMVTVSS
VL: DIQLTQSPSSLSASVGDRVTITCRASQGISSVLAWYQQKPGKAPKLLIYDASSLESGVPSRFSGSGSGTDFTLTISSLQPEDFATYYCQQFDSSITFGQGTKLEIK
notes: Tested in IgG format; human IgG1 Fc silent (PG-LALA)
Mean % WT Binding [2]: 68.7 % of WT
Mean % WT Binding [3]: 21.6 % of WT
Mean % WT Binding [4]: 106 % of WT
Mean % WT Binding [5]: 44.9 % of WT
Mean % WT Binding [6]: 108 % of WT
Mean % WT Binding [7]: 119 % of WT
Mean % WT Binding [8]: 119 % of WT
Mean % WT Binding [9]: 69.8 % of WT
Mean % WT Binding [10]: 107 % of WT
Mean % WT Binding [11]: 95.7 % of WT
Mean % WT Binding [12]: 114 % of WT
Mean % WT Binding [13]: 105 % of WT

The remaining lines, values ahead:

Mean % WT Binding [1]: 80.1 % of WT
Mean % WT Binding [2]: 0.3 % of WT
Mean % WT Binding [3]: 0.6 % of WT
Mean % WT Binding [4]: 2.1 % of WT
Mean % WT Binding [5]: 55.7 % of WT
Mean % WT Binding [6]: 2.3 % of WT
Mean % WT Binding [7]: 2 % of WT
Mean % WT Binding [8]: 1.9 % of WT
Mean % WT Binding [9]: 61.9 % of WT
Mean % WT Binding [10]: 99.4 % of WT
Mean % WT Binding [11]: 101 % of WT
Mean % WT Binding [12]: 105 % of WT
Mean % WT Binding [13]: 104 % of WT
B1: Refmab #4 (antibody, human IgG1, V domains shown)
VH: QVQLVQSGAEVKKPGESVKVSCKASGYTFTNYGMNWVKQAPGQGLEWMGWINTYTGEPTYADKFQGRVTMTTDTSTSTAYMEIRNLGGDDTAVYYCARWSWSDGYYVYFDYWGQGTSVTVSS
VL: DIVMTQSPDSLTVSLGERTTINCKSSQSVLDSSTNKNSLAWYQQKPGQPPKLLLSWASTRESGIPDRFSGSGSGTDFTLTIDSPQPEDSATYYCQQSAHFPITFGQGTRLEIK
notes: as for B4

Mean % WT Binding [1]: 106 % of WT
Mean % WT Binding [2]: 100 % of WT
Mean % WT Binding [3]: 90.3 % of WT
Mean % WT Binding [4]: 101 % of WT
Mean % WT Binding [5]: 79 % of WT
Mean % WT Binding [6]: 92.4 % of WT
Mean % WT Binding [7]: 111 % of WT
Mean % WT Binding [8]: 106 % of WT
Mean % WT Binding [9]: 87.2 % of WT
Mean % WT Binding [10]: 97.7 % of WT
Mean % WT Binding [11]: 81.6 % of WT
Mean % WT Binding [12]: 75.4 % of WT
Mean % WT Binding [13]: 21.5 % of WT
B2: Refmab #3 (antibody, human IgG1, V domains shown)
VH: QVQLVQSGAEVKKPGSSVKVSCKASGYTFTDYNMHWVRQAPGQGLEWIGYIYPYNGGTGYNQKFKSKATITADESTNTAYMELSSLRSEDTAVYYCARGRPAMDYWGQGTLVTVSS
VL: DIQMTQSPSSLSASVGDRVTITCRASESVDNYGISFMNWFQQKPGKAPKLLIYAASNQGSGVPSRFSGSGSGTDFTLTISSLQPDDFATYYCQQSKEVPWTFGQGTKVEIK
notes: as for B4
